Assay results from IntAct's records for PubMed 15020681.

B1: "Na(+)/H(+) exchange regulatory cofactor NHE-RF1" (Homo sapiens), O14745 (parent)
chain: MSADAAAGAPLPRLCCLEKGPNGYGFHLHGEKGKLGQYIRLVEPGSPAEKAGLLAGDRLVEVNGENVEKETHQQVVSRIRAALNAVRLLVVDPETDEQLQKLGVQVREELLRAQEAPGQAEPPAAAEVQGAGNENEPREADKSHPEQRELRPRLCTMKKGPSGYGFNLHSDKSKPGQFIRSVDPDSPAEASGLRAQDRIVEVNGVCMEGKQHGDVVSAIRAGGDETKLLVVDRETDEFFKKCRVIPSQEHLNGPLPVPFTNGEIQKENSREALAEAALESPRPALVRSASSDTSEELNSQDSPPKQDSTAPSSTSSSDPILDFNISLAMAKERAHQKRSSKRAPQMDWSKKNELFSNL

Variants of: B1
Conditions: with moes_human MSN

| Variant | effect of a mutation on the interaction |
| --- | --- |
| MSADAAAGAPLPRLCCLEKGPNGYGFHLHGEKGKLGQYIRLVEPGSPAEKAGLLAGDRLVEVNGENVEKETHQQVVSRIRAALNAVRLLVVDPETDEQLQKLGVQVREELLRAQEAPGQAEPPAAAEVQGAGNENEPREADKSHPEQRELRPRLCTMKKGPSGYGFNLHSDKSKPGQFIRSVDPDSPAEASGLRAQDRIVEVNGVCMEGKQHGDVVSAIRAGGDETKLLVVDRETDEFFKKCRVIPSQEHLNGPLPVPFTNGEIQKENSREALAEAALESPRPALVRSASSDTSEELNSQDSPPKQDSTAPSSTSSSDPILDFNISLAMAKERAHQKRSSKRAPQMDWSKKNELRSNL [F355R] | decreasing interaction |
